Our source for the binding result and Kd values is PMC9023267.

For data set [1], the target named is T1, Mtr4ΔF (fist-less) (Saccharomyces cerevisiae, UniProt P47047 1-666+=GGG+814-1073, internal_change).
T1 sequence: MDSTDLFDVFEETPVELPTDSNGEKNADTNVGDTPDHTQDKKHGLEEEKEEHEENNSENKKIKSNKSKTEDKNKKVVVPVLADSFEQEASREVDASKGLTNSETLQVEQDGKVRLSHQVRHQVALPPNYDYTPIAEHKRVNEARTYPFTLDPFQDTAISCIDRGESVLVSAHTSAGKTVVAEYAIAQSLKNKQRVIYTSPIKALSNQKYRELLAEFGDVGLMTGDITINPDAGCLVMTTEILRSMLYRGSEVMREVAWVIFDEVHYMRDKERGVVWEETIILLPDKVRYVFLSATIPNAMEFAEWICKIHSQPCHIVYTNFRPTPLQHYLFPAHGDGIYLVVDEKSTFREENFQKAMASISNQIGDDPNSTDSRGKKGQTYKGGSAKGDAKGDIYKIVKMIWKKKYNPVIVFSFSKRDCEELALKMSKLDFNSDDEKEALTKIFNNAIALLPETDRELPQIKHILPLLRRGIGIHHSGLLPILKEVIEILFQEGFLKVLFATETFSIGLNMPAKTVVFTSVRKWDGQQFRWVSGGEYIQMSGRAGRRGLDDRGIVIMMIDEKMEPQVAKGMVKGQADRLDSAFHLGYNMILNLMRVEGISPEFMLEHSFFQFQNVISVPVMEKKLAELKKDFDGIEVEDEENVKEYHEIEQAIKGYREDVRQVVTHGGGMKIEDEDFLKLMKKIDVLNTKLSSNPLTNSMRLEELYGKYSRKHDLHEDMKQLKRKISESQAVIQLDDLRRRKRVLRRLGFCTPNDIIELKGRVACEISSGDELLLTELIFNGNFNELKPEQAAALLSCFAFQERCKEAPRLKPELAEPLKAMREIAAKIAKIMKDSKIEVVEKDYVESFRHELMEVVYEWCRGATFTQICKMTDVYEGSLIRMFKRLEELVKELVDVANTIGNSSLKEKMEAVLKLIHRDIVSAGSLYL
Description: HDX-MS.

In another data set the target is T2, Mtr4WT (Saccharomyces cerevisiae, UniProt P47047 1-1073).
T2 sequence: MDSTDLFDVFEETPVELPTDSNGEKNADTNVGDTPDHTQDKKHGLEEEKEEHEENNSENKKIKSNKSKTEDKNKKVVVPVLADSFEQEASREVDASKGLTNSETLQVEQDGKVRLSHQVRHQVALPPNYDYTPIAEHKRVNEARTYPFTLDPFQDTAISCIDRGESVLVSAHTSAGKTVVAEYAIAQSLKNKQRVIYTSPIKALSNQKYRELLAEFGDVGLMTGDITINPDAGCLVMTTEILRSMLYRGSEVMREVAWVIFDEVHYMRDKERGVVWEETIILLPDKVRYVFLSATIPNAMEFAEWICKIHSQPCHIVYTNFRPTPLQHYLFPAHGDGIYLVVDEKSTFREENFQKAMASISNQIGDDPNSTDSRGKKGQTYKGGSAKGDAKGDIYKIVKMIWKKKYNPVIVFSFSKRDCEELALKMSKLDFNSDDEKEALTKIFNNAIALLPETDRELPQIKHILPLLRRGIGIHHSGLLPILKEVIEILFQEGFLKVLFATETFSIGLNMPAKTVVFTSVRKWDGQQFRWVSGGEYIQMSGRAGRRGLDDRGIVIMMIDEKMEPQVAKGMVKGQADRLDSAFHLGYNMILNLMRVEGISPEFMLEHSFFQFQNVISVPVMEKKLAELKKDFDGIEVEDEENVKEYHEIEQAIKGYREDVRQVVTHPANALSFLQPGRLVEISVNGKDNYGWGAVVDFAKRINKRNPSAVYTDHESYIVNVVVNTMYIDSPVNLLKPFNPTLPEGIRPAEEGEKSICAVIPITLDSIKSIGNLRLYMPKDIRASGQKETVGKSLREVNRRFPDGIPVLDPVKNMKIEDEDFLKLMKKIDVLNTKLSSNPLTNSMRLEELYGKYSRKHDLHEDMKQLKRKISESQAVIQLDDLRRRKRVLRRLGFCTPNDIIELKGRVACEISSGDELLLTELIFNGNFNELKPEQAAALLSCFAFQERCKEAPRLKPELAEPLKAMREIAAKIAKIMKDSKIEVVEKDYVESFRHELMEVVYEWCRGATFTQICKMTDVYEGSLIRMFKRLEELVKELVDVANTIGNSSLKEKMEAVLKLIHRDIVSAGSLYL
Briefly: EMSA. (In general: In EMSA bound probe runs differently from free probe, usually more slowly.)

The target in data set [2] is T1, Mtr4ΔF (fist-less). Briefly: EMSA.

B1: tRNAiMet (structured_RNA)
RNA: GGGGUUCACUGCCGUAUAGGCAGAGCGCCGUGGCGCAGUGGAAGCGCGCAGGGCUCAUAACCCUGAUGUCCUCGGAUCGAAACCGAGCGGCGCCAAAAAAAAACGC
modifications: none (hypomodified, in vitro transcript)
By Kd is commonly meant the constant that tells how readily two partners part at equilibrium. As for B1, the binding result with Mtr4ΔF (fist-less) [1] is listed as “binds”. Further, in the data set with Mtr4WT, the Kd amounted to 270 ± 20 nM.

B2: dsRNA16 (dsRNA)
RNA 1: GCGUCUUUACGGUGCUUAAAAA
RNA 2: AGCACCGUAAAGACGC
On to B2, for which the values for the Kd in the data set with Mtr4ΔF (fist-less) [2] and with Mtr4WT were 1420 ± 220 nM and 1140 ± 80 nM, respectively.

B3: ssRNA42 (ssRNA)
RNA: GCGUCUUUACGGUGCUUAAAACAAAACAAAACAAAACAAAAA
On to B3, for which the binding result with Mtr4ΔF (fist-less) [1] is “binds”. Binding with Mtr4WT was put at a Kd of 420 ± 40 nM.

B4: dsRNA32 (dsRNA)
RNA 1: GCAGGAGCCUAGCUGAAAGAUGUCCUCGGAUCGACGCGUCUUUACGGUGCUUAAAAA
RNA 2: AGCACCGUAAAGACGC
For the molecule B4, the binding result with Mtr4ΔF (fist-less) [1] was “binds”. The molecule also registered a Kd in the data set with Mtr4WT of 570 ± 30 nM.
